From FireProtDB (doi:10.1371/journal.ppat.1004158)

Settings: Podospora anserina; pH 7.5; 25 °C; GdnHCl; optical density; whole UniProt chain shown

B1: Heterokaryon incompatibility protein s wild type, Q03689 (protein)
chain: MSEPFGIVAGALNVAGLFNNCVDCFEYVQLGRPFGRDYERCQLRLDIAKARLSRWGEAVKINDDPRFHSDAPTDKSVQLAKSIVEEILLLFESAQKTSKRYELVADQQDLVVFEDKDMKPIGRALHRRLNDLVSRRQKQTSLAKKTAWALYDGKSLEKIVDQVARFVDELEKAFPIEAVCHKLAEIEIEEVEDEASLTILKDAAGGIDAAMSDAAAQKIDAIVGRNSAKDIRTEERARVQLGNVVTAAALHGGIRISDQTTNSVETVVGKGESRVLIGNEYGGKGFWDN
unfolding free energy: 2.9 kcal/mol
